Reference: PMC4515032

Biological target: mCherry-tagged mutant Htt exon 1 (HttQ91)
Assay: FRET or BRET

- mean FRET efficiency: 16.3%
Substance: YFP-tagged wild-type Htt exon 1 (HttQ25) (domain or fragment)
